Broadly, the Kd is the constant that tells how readily two partners part at equilibrium. In general, koff refers to a measure of how fast the partners let go of each other. A lower koff goes with a long-lived complex. A word on the kon: it is the rate constant with which the complex forms. The low end stands for slow association, the high end for fast association.

Read-outs that look alike come from different tables or passages of the source.

Assay [1] addresses Insulin. In words: BLI.
The target in assay [2] is Insulin. In words: BLI. This is another data set of the same source. A general note: Biolayer interferometry detects binding as a change in optical thickness at a sensor tip.

B1: Recombinant mouse secretagogin (SCGN) (natural protein)
chain: MDNARRKTPARLDAACFWQIWQRFDKEEKGYIRETELDAFFDHLLAKSGTEDTLMEENVQKVKEQLMTSHNVSKEGRILMKELASMFLSEDENFLLFFRLETPLDNSVEFMQIWRKYDADSSGFISAAELCNFLRDLFLHHKKNISEAELEEYTSTMMKIFDKNKDGRLDLNDLARILALQENFLLQFKMDASSTEERKRDFEKIFAHYDVSKTGALEGPEVDGFVKDMMELVQPSISGVDLDKFREILLRHCDVNKDGKIQKSELALCLGLKINP
Take B1: in the assay with Insulin [1], the equilibrium dissociation constant (Kd) turned out to be 1800 nM, the koff came to 0.001 s⁻¹ and the kon turned out to be 720 M⁻¹ s⁻¹. In the assay with Insulin [2], this molecule returned a dissociation constant (Kd) of 1400 nM and a koff of 0.0006 s⁻¹.

(Values after article PMC6864339.)
